The target of experiment [1] is T1, Recombinant human GPNMB extra-cellular domain (ECD) with a C-terminus V5-HIS tag (human, UniProt Q14956 23-492).
T1 construct: Expressed in HEK293; also called GPNMB-V5His; GPNMB-soluble
T1 sequence: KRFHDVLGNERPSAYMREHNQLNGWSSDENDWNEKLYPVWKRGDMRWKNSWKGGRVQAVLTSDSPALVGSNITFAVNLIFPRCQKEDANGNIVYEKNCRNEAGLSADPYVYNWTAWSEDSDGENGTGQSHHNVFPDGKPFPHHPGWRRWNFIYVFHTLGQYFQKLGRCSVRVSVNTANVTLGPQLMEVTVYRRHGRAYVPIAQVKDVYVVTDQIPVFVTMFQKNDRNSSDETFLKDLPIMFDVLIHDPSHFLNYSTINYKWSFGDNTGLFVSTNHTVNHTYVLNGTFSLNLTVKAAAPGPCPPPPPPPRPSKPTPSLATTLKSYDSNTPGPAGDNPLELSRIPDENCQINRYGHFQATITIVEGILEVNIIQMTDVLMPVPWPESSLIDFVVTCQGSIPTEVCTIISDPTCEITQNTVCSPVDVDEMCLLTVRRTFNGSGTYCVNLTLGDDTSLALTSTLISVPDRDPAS
Briefly: Biacore, mAb captured on protein A. For orientation: In SPR one partner is held on a chip, and binding of the other changes the refractive index at the surface.
Description: Certain Hybridoma cell supernatants (29) were analyzed for binding to GPNMB by BiaCore® 2000 biosensor equipped with a research-grade CM5 sensor chip. A 1:25 dilution of cell supernatant was passed over a protein A surface for 5 min followed by washing the surface for 10 mins. […] GPNMB binding data for each mAb was normalized for the amount of mAb captured on each surface. Normalized, drift corrected responses were also measured. The sensorgrams were fit to a simple 1:1 kinetic model.

Experiment [2] concerns the target T2, GPNMB (CG56972) as expressed by human cell lines (human, UniProt Q14956 23-492).
T2 sequence: T1 sequence
Briefly: cell-based or functional assay.

For experiment [3], the target named is T2, GPNMB (CG56972) as expressed by human …. Briefly: FACS on UACC-62 cells, antibody 1 ug/mL.
Description: The specificity of anti-GPNMB antibodies to cell membrane-bound GPNMB protein expressed by melanoma cancer cell line, UACC-62 was analyzed by FACS analysis. […] Cells were washed twice with PBS (Ca and Mg free), incubated with Versene at 37° C. until cells detached, counted and aliquoted at 1 million cells per assay tube. Cells were then washed twice and resuspended in ice-cold FACS buffer (0.01 M HEPES, 0.15M NaCl, 0.1% NaN₃ and 4% FBS). Primary antibody at 1 μg/mL was added to the cells. Cells were incubated on ice for 30 min, washed 2-3 times and resuspended in 1 mL of ice-cold FACS buffer. R-PE-conjugated goat anti-human antibody (Jackson ImmunoResearch Laboratory) at 1:100 dilution was added and cells were incubated on ice for 30 min. After washing 3 times with 1 mL of ice-cold FACS buffer, cells were fixed with 0.5-1 mL of 1% formaldehyde in PBS and analyzed by flow cytometry.
Experiment [4] has the same target. Description: cell-based or functional assay. The source holds these as a separate data set.
For experiment [5] the target is unchanged. Briefly: cell-based or functional assay. This is another data set of the same source.
The target is the same in experiment [6]. Description: cell-based or functional assay. The source holds these as a separate data set.
Experiment [7] shares this target. Description: cell-based or functional assay. This is another data set of the same source.
For experiment [8] the target is unchanged. Briefly: cell-based or functional assay. This is another data set of the same source.
Experiment [9] has as its target T3, CD3 on purified human T cells (human, UniProt P07766 23-207; P04234 22-171; P09693 23-182).
T3 construct: also called human CD3 molecules
Description: flow cytometry on purified human T cells, mouse anti-FLAG mAb and PE-conjugated goat anti-mouse Ig F(ab')2. A general note: In flow cytometry, cells or beads pass a laser one at a time.

In experiment [10] the target is T1, Recombinant human GPNMB extra-cellular …. Description: ELISA on plates coated with recombinant GPNMB (His and V5 tagged), detection with anti-FLAG M2-HRP. Background: An ELISA detects its analyte on a solid surface through an enzyme-linked reagent.
Description: Plates were then blocked and washed. […] Plates were incubated for 1 h and washed. HRP-conjugated anti-FLAG M2 mAb (Sigma, St. Louis, Mo.) was added into the wells for 1 h, washed and the reaction developed with the TMB substrate reagent as described by the manufacturer (Pharmingen, San Jose, Calif.).

“And” between values parts separate entries of the source, which are not always exact repeats. Identical values can stand only once. Bounds are passed on as bounds.

The Kd is the equilibrium constant for the complex coming apart. One may read the koff as a measure of how fast the partners let go of each other. The term kon denotes a measure of how fast the partners come together.

T3 sequence (P07766 23-207 limits assumed, chain 1 of 3): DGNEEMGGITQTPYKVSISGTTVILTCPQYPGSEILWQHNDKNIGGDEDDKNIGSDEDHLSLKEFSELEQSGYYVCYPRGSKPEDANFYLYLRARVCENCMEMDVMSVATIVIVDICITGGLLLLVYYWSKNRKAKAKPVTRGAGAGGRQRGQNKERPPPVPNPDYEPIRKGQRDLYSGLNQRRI
T3 sequence (P04234 22-171 limits assumed, chain 2 of 3): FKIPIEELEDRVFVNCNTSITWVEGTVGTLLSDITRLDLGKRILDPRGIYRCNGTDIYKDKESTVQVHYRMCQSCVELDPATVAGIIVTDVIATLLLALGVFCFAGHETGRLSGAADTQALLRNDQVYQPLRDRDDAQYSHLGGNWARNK
T3 sequence (P09693 23-182 limits assumed, chain 3 of 3): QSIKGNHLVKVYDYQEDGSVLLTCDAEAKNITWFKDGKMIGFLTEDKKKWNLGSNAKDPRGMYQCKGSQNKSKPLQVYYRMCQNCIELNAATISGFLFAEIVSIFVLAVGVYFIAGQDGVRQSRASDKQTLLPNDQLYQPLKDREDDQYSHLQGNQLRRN

B1: Mab1.7.1 (antibody, IgG2, V domains shown)
VH: QVQLQESGPGLVKPSQTLSLTCTVSGGSISSANYYWTWIRQHPGKGLEWIGYIYYSGSTYCNPSLKSRVIISVDTSKNQFSLKLSSVTAADTAVYYCARGYNWNYFDYWGQGTLVTVSS
VL: DIVMTQSPATLSVSPGERATLSCRASQSVSSNLAWYQERPGQAPRLLIYGASTRATGIPARFSGSGSGTEFTLTISSLQSEDFAVYYCQQYNKWPPWTFGQGTKVEIER
notes: Fully human hybridoma antibody (XenoMouse XMG2, IgG2 kappa)
For the molecule B1, in experiment [1], the Kd is 122 nM, the koff came out at 0.00144 s⁻¹ and the kon came out at 11800 M⁻¹ s⁻¹.

B2: Mab2.10.2 (antibody, IgG2, V domains shown)
VH: QLVESGGGVVQPGRSLRLSCAASGFAFSSYGMHWVRQAPGKGLEWVAVISYDGNNKYYADSVKGRFTISRDNSKNTLYLQMNSLRAEDTAVYYCARDLVVRGIRGYYYYFGMDVWGQGTTVTVSS
VL: not shown
notes: Fully human hybridoma antibody (XenoMouse XMG2, IgG2 kappa); also called CR011.2.10.2
B2: the “killing of UACC-62 cells with saporin-conjugated secondary antibody (colony count)” value in [2] is above 70%. The “Geo Mean Ratio (relative to pK16)” value in experiment [3] is 2.6 ratio.

B3: Mab1.10.2 (antibody, IgG2, V domains shown)
VH: QVQLQESGPGLVKPSETLSLTCTVSGDSISNYYWSWIRQPPGKGLEWIGYFYYSGSTNYNPSLKSRVTISVDTSKNQFSLKLSSVTAADTAVYYCARDRGWADYWGQGTLVTVSS
VL: EIVLTQSPGTLSLSPGERATLSCRTSQSISSSYLAWYQQKPGQVPRLLIYGASSRATGIPDRFSGSGSGTDFTLTISRLEPEDFAVYYCQQYGSSITFGQGTRLEIKR
notes: as for B1
Take B3: in experiment [1], the Kd is 118 nM, the koff worked out at 0.000466 s⁻¹ and the kon is 3960 M⁻¹ s⁻¹.

B4: CR011-vcMMAE (antibody, human IgG2)
heavy: QVQLQESGPGLVKPSQTLSLTCTVSGGSISSFNYYWSWIRHHPGKGLEWIGYIYYSGSTYSNPSLKSRVTISVDTSKNQFSLTLSSVTAADTAVYYCARGYNWNYFDYWGQGTLVTVSSASTKGPSVFPLAPCSRSTSESTAALGCLVKDYFPEPVTVSWNSGALTSGVHTFPAVLQSSGLYSLSSVVTVPSSNFGTQTYTCNVDHKPSNTKVDKTVERKCCVECPPCPAPPVAGPSVFLFPPKPKDTLMISRTPEVTCVVVDVSHEDPEVQFNWYVDGVEVHNAKTKPREEQFNSTFRVVSVLTVVHQDWLNGKEYKCKVSNKGLPAPIEKTISKTKGQPREPQVYTLPPSREEMTKNQVSLTCLVKGFYPSDIAVEWESNGQPENNYKTTPPMLDSDGSFFLYSKLTVDKSRWQQGNVFSCSVMHEALHNHYTQKSLSLSPGK
VL: not shown
modifications: vcMMAE (maleimidocaproyl-valine-citrulline-monomethylauristatin E) on cysteine thiols of reduced disulfides, about 4 per antibody; positions not given
As for B4, in experiment [4], the “IC50 of colony formation (clonogenic assay, % of control) on SK-Mel-2 cells transfected with control siRNA (circles)” value came out at 0.22 µg/mL and the “IC50 of colony formation (clonogenic assay, % of control) on mock-transfected SK-Mel-2 cells (diamonds)” value was 0.33 µg/mL. Moreover, in experiment [5], the “CR011-AE IC50, clonogenic assay, SF-268 (weakly expressing)” value was above 1.5 µg/mL; the “CR011-AE IC50, clonogenic assay, SF-539” value was found to be 1.03 µg/mL; the “CR011-AE IC50, clonogenic assay, SK-MEL-2” value was 0.303 µg/mL; the “CR011-AE IC50, clonogenic assay, SNB-78” value was found to be 0.449 µg/mL. Moreover, in [5], the “CR011-AE IC50, clonogenic assay, U-118-MG” value was determined as 1.25 µg/mL and the “CR011-AE IC50, clonogenic assay, XF-498” value is 0.216 µg/mL. Besides, in experiment [6], the “Clonogenic Assay with 1.15.1-AE IC50, SR” value is 296 ng/mL and 2000 pM; the “Clonogenic Assay with 1.15.1-AE IC50, THP-1” value was 207 ng/mL and 1400 pM; the “Clonogenic Assay with 1.15.1-AE IC50, U937” value is 340 ng/mL and 2400 pM. Further, in experiment [7], the “Clonogenic Assay with 1.15.1-AE IC50, G361” value is 1050 ng/mL and 6500 pM; the “Clonogenic Assay with 1.15.1-AE IC50, RPMI-7951” value is 972 ng/mL and 6000 pM; the “Clonogenic Assay with 1.15.1-AE IC50, SK-Mel 2” value is 111 ng/mL and 750 pM; the “Clonogenic Assay with 1.15.1-AE IC50, SK-Mel 5” value was 237 ng/mL and 1600 pM. Also, in experiment [7], the “Clonogenic Assay with 1.15.1-AE IC50, UACC-62” value is 697 ng/mL and 4300 pM; the “Clonogenic Assay with 1.15.1-AE IC50, UACC-257” value was 825 ng/mL and 5500 pM; the “Clonogenic Assay with 1.15.1-AE IC50, WM-266-4” value is 345 ng/mL and 2300 pM. Moreover, the “IC50 of colony formation (clonogenic assay, % of control, 96 h) on HEK293 cells transfected with GPNMB (circles); Vector + CR011-vcMMAE (diamonds) is printed as >1000” value in experiment [8] worked out at 0.3 µg/mL.

B5: Mab1.2.2 (antibody, IgG2, V domains shown)
VH: ITLKESGPTLVKPTQTLTLTCTFSGFSLSAGGVGVGWIRQPPGKALEWLALIYWNDDKRYSPSLRSRLTITKDTSKNQVVLTITNMDPVDTATYYCAHSHYDYDWGSYFDYWGQGTLVTVSS
VL: DIVMTQTPLSLPVTPGEPASISCRSSQSLLDSDDGNTYLDWYLQKPGQSPQLLIYTLSYRASGVPDRFSGSGSGTDFTLNISRVEAEDVGVYYCMQRIEFPITFGQGTRLEIKR
notes: Fully human hybridoma antibody (XenoMouse XMG2, IgG2 kappa); also called CR011.1.2.2
Regarding B5, in experiment [1], the Kd worked out at 96 nM, the koff is 0.00089 s⁻¹ and the on-rate constant (kon) is 9260 M⁻¹ s⁻¹. Further, in [3], the “Geo Mean Ratio (relative to pK16)” value was 1.24 ratio.

B6: Mab2.22.1 (antibody, IgG2, V domains shown)
VH: QVQLEQSGPGLVKPSQNLSLTCTVSGGSISSGGYFWSWIRQHPGKGLEWIGYIYYSGNTYYNPSLKSRVTISVDTSKNQFSLKLSSVTAADTAVYYCARDYYYDTSGFSYRYDWYYGMDVWGQGTTVTVSS
VL: DIQLTQSPSSLSASVGDRVTITCRASQGIRNDLGWYQQKPGKAPKRLIYAASSLQNGVPSRFSGSGSGTEFTLTISSLQPEDFATYYCLQHNTYPAFGQGTKVEIKR
notes: Fully human hybridoma antibody (XenoMouse XMG2, IgG2 kappa); also called CR011.2.22.1
Consider B6, for which, in experiment [2], the “killing of UACC-62 cells with saporin-conjugated secondary antibody (colony count)” value is above 70%. Further, the “Geo Mean Ratio (relative to pK16)” value in [3] came to 4.46 ratio.

B7: CR011 single chain antibody (CR011 scFv), VL-L4-VH, Flag tag (scFv)
scFv: EIVMTQSPATLSVSPGERATLSCRASQSVDNNLVWYQQKPGQAPRLLIYGASTRATGIPARFSGSGSGTEFTLTISSLQSEDFAVYYCQQYNNWPPWTFGQGTKVEIKLSADDAKKDAAKKDDAKKDDAKKDLQVQLQESGPGLVKPSQTLSLTCTVSGGSISSFNYYWSWIRHHPGKGLEWIGYIYYSGSTYSNPSLKSRVTISVDTSKNQFSLTLSSVTAADTAVYYCARGYNWNYFDYWGQGTLVTVSSASDYKDDDDK
notes: also called CR011 scFv monomer; mono-specific anti-GPNMB scFv
Turning to B7, the binding result in experiment [9] is on record as “no binding (tested: 5 ug/sample/100 ul)”; in [10], “binds”.

The values are drawn from patent publication US20130244255A1 (published 2013).
